B1: ATL3 (parent)
chain: YGLQGGMAFLDKRLQVKEHQHEEI
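Further: lentivirally expressed fusions sorted by FACS into six bins by GFP to DsRed ratio, PSI derived from sequencing read proportions per bin multiplied by bin number.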

Variants of: B1
Experiment: protein stability index of a GFP-peptide fusion (GPS, HEK-293T) (PSI 1-6); higher = more stable
Conditions: c terminus: a fixed tail appended
With L10W the protein stability index was 1.96. In the case of L10Y, the protein stability index is reported as 1.68. In the case of D11A, the protein stability index is reported as 1.65. In the case of D11C, the protein stability index is reported as 2.94. D11E gave a protein stability index of 2.9. Work on D11F yielded a protein stability index of 1.78. With D11G the protein stability index was 2.76. Work on D11H yielded a protein stability index of 1.61. For D11I, the protein stability index was 1.85. For D11K, the protein stability index was 2.27. For D11L, the protein stability index was 2.37. In the case of D11M, the protein stability index is reported as 2.22. D11N gave a protein stability index of 1.81. With D11P the protein stability index was 2.33. Variant D11Q has a protein stability index of 1.72. D11R showed a protein stability index of 1.95. D11S showed a protein stability index of 1.91. With D11T the protein stability index was 2.16. In the case of D11V, the protein stability index is reported as 2.84. D11W showed a protein stability index of 2.01. D11Y gave a protein stability index of 2.74. K12A gave a protein stability index of 1.93. Variant K12C has a protein stability index of 1.49. Work on K12D yielded a protein stability index of 1.75. For K12E, the protein stability index was 1.99. K12F showed a protein stability index of 3.37. K12G showed a protein stability index of 2.22. Work on K12H yielded a protein stability index of 2.03. For K12I, the protein stability index was 3.88. In the case of K12L, the protein stability index is reported as 3.83. K12M gave a protein stability index of 2.89. K12N gave a protein stability index of 2.91. For K12P, the protein stability index was 1.88. Variant K12Q has a protein stability index of 1.81. K12S showed a protein stability index of 2.26. For K12T, the protein stability index was 1.79. For K12V, the protein stability index was 2.62. K12W showed a protein stability index of 2.44. With K12Y the protein stability index was 2.73. Work on R13A yielded a protein stability index of 2.47. For R13C, the protein stability index was 2.56. For R13D, the protein stability index was 1.52. R13E gave a protein stability index of 1.59. In the case of R13F, the protein stability index is reported as 2.73. R13G gave a protein stability index of 1.28. In the case of R13H, the protein stability index is reported as 2.26. R13I gave a protein stability index of 1.66. With R13K the protein stability index was 2.84. Work on R13L yielded a protein stability index of 2.3. Variant R13M has a protein stability index of 2.04. R13N gave a protein stability index of 2.87. Work on R13P yielded a protein stability index of 1.93. R13Q gave a protein stability index of 1.86. R13S showed a protein stability index of 1.98. Work on R13T yielded a protein stability index of 2.28. R13V gave a protein stability index of 2.14. Work on R13W yielded a protein stability index of 1.73. With R13Y the protein stability index was 1.34. Variant L14A has a protein stability index of 3.51. L14C showed a protein stability index of 3.61. L14D gave a protein stability index of 2.16. Work on L14E yielded a protein stability index of 2.55. With L14F the protein stability index was 2.82. L14G gave a protein stability index of 3.93. Work on L14H yielded a protein stability index of 2.04. Variant L14I has a protein stability index of 2.63. L14K showed a protein stability index of 2.1. Variant L14M has a protein stability index of 2.07. L14N showed a protein stability index of 1.77. In the case of L14P, the protein stability index is reported as 3.04. For L14Q, the protein stability index was 1.52. L14R showed a protein stability index of 2.48. L14S gave a protein stability index of 2.57. For L14T, the protein stability index was 3.17. Work on L14V yielded a protein stability index of 2.45. In the case of L14W, the protein stability index is reported as 2.82. L14Y gave a protein stability index of 3.4. For Q15A, the protein stability index was 3.14. For Q15C, the protein stability index was 3.47. Q15D showed a protein stability index of 2.4. In the case of Q15E, the protein stability index is reported as 1.76. For Q15F, the protein stability index was 2.65. In the case of Q15G, the protein stability index is reported as 2.69. Work on Q15H yielded a protein stability index of 2.75. With Q15I the protein stability index was 2.64. With Q15K the protein stability index was 2.54. For Q15L, the protein stability index was 2.21. Work on Q15M yielded a protein stability index of 3.24. Work on Q15N yielded a protein stability index of 1.79. Q15P gave a protein stability index of 2.47. Work on Q15R yielded a protein stability index of 2.28. For Q15S, the protein stability index was 3.92. In the case of Q15T, the protein stability index is reported as 2.04. For Q15V, the protein stability index was 2.9. Variant Q15W has a protein stability index of 2.37. With Q15Y the protein stability index was 2.44. Work on V16A yielded a protein stability index of 2.7. With V16C the protein stability index was 2.78. Work on V16D yielded a protein stability index of 2.08. For V16E, the protein stability index was 2.79. V16F gave a protein stability index of 2.5. Work on V16G yielded a protein stability index of 1.77. V16H showed a protein stability index of 1.91. With V16K the protein stability index was 2.84. V16L gave a protein stability index of 2.81. V16M showed a protein stability index of 2.42. With V16N the protein stability index was 1.6. V16P showed a protein stability index of 1.22. With V16Q the protein stability index was 3.13. With V16R the protein stability index was 2.02. For V16S, the protein stability index was 1.46. Work on V16T yielded a protein stability index of 2.3. In the case of V16W, the protein stability index is reported as 2.33. For V16Y, the protein stability index was 3.04. For K17A, the protein stability index was 1.42. Variant K17C has a protein stability index of 2.17. K17D showed a protein stability index of 1.54. For K17E, the protein stability index was 2.56. In the case of K17F, the protein stability index is reported as 2.52. In the case of K17H, the protein stability index is reported as 2.63. With K17I the protein stability index was 2.51. K17M gave a protein stability index of 2.55. Variant K17N has a protein stability index of 3.3. Variant K17P has a protein stability index of 2.82. Work on K17Q yielded a protein stability index of 1.55. Variant K17R has a protein stability index of 2.99. For K17S, the protein stability index was 1.8. K17T gave a protein stability index of 2.7. For K17V, the protein stability index was 2.42. K17W showed a protein stability index of 2.2. K17Y gave a protein stability index of 3.11. With E18A the protein stability index was 3.26. Work on E18C yielded a protein stability index of 2.58. E18D gave a protein stability index of 2.19. For E18F, the protein stability index was 3.53. E18G gave a protein stability index of 3.65. With E18H the protein stability index was 2.48. E18I gave a protein stability index of 3.67. Work on E18K yielded a protein stability index of 3.37. Work on E18L yielded a protein stability index of 1.74. E18M gave a protein stability index of 3.04. Variant E18N has a protein stability index of 2.32. In the case of E18P, the protein stability index is reported as 2.37. With E18Q the protein stability index was 1.99. For E18R, the protein stability index was 2.19. E18S gave a protein stability index of 1.73. In the case of E18T, the protein stability index is reported as 2.4. Variant E18V has a protein stability index of 1.9. E18W showed a protein stability index of 3.87. In the case of E18Y, the protein stability index is reported as 2.61. Work on H19A yielded a protein stability index of 2.74. H19C gave a protein stability index of 2.31. Variant H19D has a protein stability index of 3.38. With H19E the protein stability index was 2.81. Variant H19G has a protein stability index of 2.65. Variant H19I has a protein stability index of 2.95. H19K showed a protein stability index of 2.25. For H19L, the protein stability index was 2.36. H19M gave a protein stability index of 2.82. H19N gave a protein stability index of 2.6. For H19P, the protein stability index was 2.5. H19Q showed a protein stability index of 2.48. With H19S the protein stability index was 2.01. Work on H19T yielded a protein stability index of 2.54. For H19V, the protein stability index was 3.03. Work on H19W yielded a protein stability index of 3.59. In the case of H19Y, the protein stability index is reported as 2.76.

Source: the supplement of paper PMC10567573
